Test results as given in paper PMC11161628, “Omecamtiv mecarbil and Mavacamten target the same myosin pocket despite opposite effects in heart contraction” (Nature Communications, 2024).

Biological target: the molecule itself
Assay: crystal structure; PPS-S1-Mava (crystal type B): S1 with Mg.ADP.BeFx and 5 mM Mavacamten, trypsin 1:500 (w:w), hanging drop at 4 °C, 20.5% PEG3350, 7.5% NaTacsimate pH 6.0, 5 mM TCEP; two molecules per asymmetric unit; 2.61 Å

B1: Bovine β-cardiac myosin S1 fragment, heavy chain (domain or fragment, UniProt Q9BE39 1-810, looked up)
chain: MVDAEMAAFGEAAPYLRKSEKERLEAQTRPFDLKKDVFVPDDKEEFVKATILSREGGKVTAETEHGKTVTVKEDQVLQQNPPKFDKIEDMAMLTFLHEPAVLYNLKERYASWMIYTYSGLFCVTINPYKWLPVYNAEVVAAYRGKKRSEAPPHIFSISDNAYQYMLTDRENQSILITGESGAGKTVNTKRVIQYFAVIAAIGDRSKKEQATGKGTLEDQIIQANPALEAFGNAKTVRNDNSSRFGKFIRIHFGATGKLASADIETYLLEKSRVIFQLKAERDYHIFYQILSNKKPELLDMLLITNNPYDYAFISQGETTVASIDDAEELMATDNAFDVLGFTTEEKNSMYKLTGAIMHFGNMKFKLKQREEQAEPDGTEEADKSAYLMGLNSADLLKGLCHPRVKVGNEYVTKGQNVQQVVYAKGALAKAVYERMFNWMVTRINATLETKQPRQYFIGVLDIAGFEIFDFNSFEQLCINFTNEKLQQFFNHHMFVLEQEEYKKEGIEWEFIDFGMDLQACIDLIEKPMGIMSILEEECMFPKATDMTFKAKLFDNHLGKSSNFQKPRNIKGKPEAHFSLIHYAGTVDYNIIGWLQKNKDPLNETVVDLYKKSSLKMLSSLFANYAGFDTPIEKGKGKAKKGSSFQTVSALHRENLNKLMTNLRSTHPHFVRCIIPNETKSPGVIDNPLVMHQLRCNGVLEGIRICRKGFPNRILYGDFRQRYRILNPAAIPEGQFIDSRKGAEKLLGSLDIDHNQYKFGHTKVFFKAGLLGLLEEMRDERLSRIITRIQAQSRGVLSRMEFKKLLERRDS
notes: Native protein cut by proteases, not a recombinant construct; also called bovine cardiac S1 fragment; PPS-S1-Mava; source: purified from frozen bovine heart (Pel-Freez Biologicals); limited chymotryptic digestion of the full-length myosin, Mono-Q; trypsin present in the crystallization drops
Q: Does B1 bind?
A: binds
